One block for each molecule: values may come before it.
Experiments:
[1] = molecular target: human HER3: human NRG1 complex (Homo sapiens, UniProt P21860); assay: BLI binding to HER3 in ligand-bound 'open' conformation; conditions: NRG1 at 1:1 molar ratio with HER3
Procedure: In further experiments, anti-HER3 antibodies were analysed in order to determine the affinity of binding to human HER3 in the context of a human HER3: human NRG1 complex (that is, HER3 provided in the ligand-bound, ‘open’ conformation), as compared to the affinity of binding to human HER3 in the absence of NRG1 complex (that is, HER3 provided in the unbound, ‘closed’ conformation).
(§1) Binding of anti-HER3 antibodies to human HER3 was evaluated by BLI. Briefly, anti-Human IgG Capture (AHC) sensors (ForteBio) were loaded with anti-HER3 IgG antibodies (25 nM). Kinetic measurements were performed in absence or presence of NRG1. NRG1 was used at 1:1 molar ratio with HER3 wherein the complex was allowed to form at RT for 2 h. His-tagged human HER3 or HER3-NRG1 complexes were loaded to antibody coated AHC sensors at different concentrations for 120 s, followed by a 120 s dissociation time. All measurements were performed at 25° C. with agitation at 1000 rpm. Sensorgrams were referenced for buffer effects and then analyzed using the Octet QK384-software (ForteBio). Kinetic responses were globally fitted using a one-site binding model to obtain values for association (Kon), dissociation (Koff) rate constants and the equilibrium dissociation constant (KD).

[2] = molecular target: human HER3 (Homo sapiens, UniProt P21860); assay: Global affinity study by Bio-Layer Interferometry (Octet QK384); format: binding; conditions: HER3 unbound, 'closed' conformation
Procedure: The anti-HER3 antibody clones in IgG1 format were analysed for binding affinity to human HER3.
Bio-Layer Interferometry (BLI) experiments were performed using the Octet QK384 system (ForteBio). anti-Human IgG Capture (AHC) Octet sensor tips (Pall ForteBio, USA) were used to anti-HER3 antibodies (25 nM). All measurements were performed at 25° C. with agitation at 1000 rpm. […] Sensograms were referenced for buffer effects and then fitted using the Octet QK384 user software (Pall ForteBio, USA).
as §1

[3] = molecular target: T1, human EGFR (Homo sapiens, UniProt P00533); assay: ELISA for antibody specificity: human EGFR (HER1); format: binding
T1 construct: purchased Sino Biological Inc., China
Procedure: ELISAs were used to determine the binding specificity of the antibodies. The antibodies were analysed for binding to human HER3 polypeptide, as well as respective mouse, rat and monkey homologues of HER3 (Sino Biological Inc., China). The antibodies were also analysed for their ability to bind to human EGFR and human HER2 (Sino Biological Inc., China).
ELISAs were carried out according to standard protocols. Briefly, 96-well plates (Nunc, Denmark) were coated with 0.1 μg/ml of target polypeptide in phosphate-buffered saline (PBS) for 16 h at 4° C. After blocking for 1 h with 1% BSA in Tris buffer saline (TBS) at room temperature, the anti-HER3 antibody was serially diluted with the highest concentration being 10 μg/ml, and added to the plate. Post 1 h incubation at room temperature, plates were washed three times with TBS containing 0.05% Tween 20 (TBS-T) and were then incubated with a HRP-conjugated anti-His antibody (Life Technologies, Inc., USA) for 1 h at room temperature. […] The reaction was stopped with 2M H2SO4, and OD was measured at 450 nm.
The antibodies were analysed for their ability to bind to human HER3 polypeptide as well as human HER1 (EGFR) and human HER2 (Sino Biological Inc., China). […]
ELISAs were carried out according to standard protocols. […] The reaction was stopped with 2M […], and OD was measured at 450 nm.

[4] = test system: intracellular signalling pathways in FaDu cells; assay: Phosphoprotein Antibody Array, FaDu cells; format: cell-based; conditions: 50 μg/ml antibody 4 hrs, NRG 100 ng/ml 15 min
Procedure: In further experiments the inventors investigated the intracellular signalling pathways affected by anti-HER3 antibody-mediated inhibition of HER3.
FaDu cells were seeded in wells of a 6 well plate with 10% serum at 37° C., 5% CO2. After 16 hrs, cells were starved by culture overnight in 1% FBS cell culture medium. On the following day cells were treated with 50 μg/ml anti-HER3 antibody 10D1 for 4 hrs, followed by 15 min stimulation with NRG (100 ng/ml). Proteins were then extracted, quantified using standard Bradford protein assay, and incubated overnight with pre-blocked Phosphoprotein Antibody Array membrane (Ray Biotech) at 4° C. The membrane was then washed with washing buffer and incubated with detection antibody cocktail for 2 hrs at room temperature, followed by washing and incubation with HRP-Conjugated anti-IgG. After 2 hrs the membrane was washed and probed using the kit detection buffer. Images were captured with Syngene Gbox imaging system, the intensity of each dot/phosphoprotein was measured and percent inhibition was calculated by comparison with intensity measured for cells treated in the same way in the absence of the antibody.

[5] = test system: HER3 extracellular domain; assay: Epitope mapping with overlapping 15-mer peptides; format: binding, human
Procedure: The epitope for 10D1 was mapped using overlapping 15-mer amino acids to cover the entire HER3 extracellular domain. Each unique 15-mer was elongated by a GS linker at C and N-terminals, conjugated to a unique well in 384 well plates, and the plates were incubated with 0.1, 1, 10 and 100 ug/ml of 10D1 antibody for 16 hrs at 4° C. The plates were washed and then incubated for 1 hr at 20° C. with POD-conjugated goat anti-human IgG. Finally POD substrate solution was added to the wells for 20 min. before binding was assessed by measurement of chemiluminescence at 425 nm using a LI-COR Odyssey Imaging System, and quantification and analysis was performed using the PepSlide Analyzer software package. The experiment was performed in duplicate.

[6] = molecular target: His-tagged human HER3 (Homo sapiens, UniProt P21860); assay: BLI competition between anti-HER3 antibodies for binding to HER3
Procedure: Bio-Layer Interferometry (BLI) experiments were performed using the Octet QK384 system (ForteBio). anti-Penta-HIS (HIS1K) coated biosensor tips (ForteBio, USA) were used to capture His-tagged human HER3 (75 nM; 300 s). […] The variable region of LJM-716 antibody was cloned in the PDZ vector having human IgG1 and IgKappa Fc backbone.
BLI experiments were performed as described in Example 3.5 with one alteration: 400 nM of competing antibodies were used. The variable regions of M-05-74 and M-08-11 antibodies were cloned in the PDZ vector having human IgG1 and IgKappa Fc backbone.

Molecule: LJM716: anti-HER3 antibody clone described in Garner et al., Cancer Res (2013); epitope across domains II and IV [reference compound]
affinity of binding to human HER3 in the presence of NRG1 [1]: dramatically reduced
affinity of binding to human HER3 in the absence of NRG1 [2]: subpicomolar affinity

B3: 10D1: parental mouse anti-HER3 antibody clone, VH SEQ ID NO:24, VL SEQ ID NO:74, human IgG1 chimeric (antibody, V domains shown)
VH: DVQLQESGPDLVKPSQSLSLTCTVTGYSITSGYSWHWIRQFPGNKLEWMGSIHYSGGTNYNPSLKSRISITRDTSKNQFFLQLNSVTTEDTATYFCARMTTAPRYPFDYWGQGTTLTVSS
VL: DIVMTQSQKFMSTSVGDRVSVTCKASQIVGSNVAWYQQKPGQSPKPLIYSASYRYSGVPDRFTASGSGTDFTLTITNVQSEDLAEYFCQQYSSHPLTFGAGTKLELK
modifications: human IgG1 constant regions; 10D1 heavy chain variable region; 10D1 light chain variable region
PI3K/AKT/mTOR and MAPK signalling [4]: inhibit PI3K/AKT/mTOR and MAPK signalling
location of epitope relative to β-hairpin of HER3 dimerisation arm [5]: at a dimerisation interface N-terminal to the β-hairpin
site of HER3 bound ([5]; positions of human HER3 SEQ ID NO:1, region SEQ ID NO:229): positions 218 to 235
epitope of HER3 relative to MM-121 and/or LJM-716 [6]: distinct and topologically distant epitope

Now from value to molecule:

binding to human EGFR [3]: found to bind
B1: 4-35-B2: anti-HER3 antibody clone, VH SEQ ID NO:127, VL SEQ ID NO:135 (antibody, V domains shown)
VH: EIQLQQSGPELVKPGASVKVSCKASGYSFTDYNMYWVKQSHGKSLEWIGHINPYNGGTTYNQKFKGRATLTVDKSSSTAFMHLNSLTSEDSAVYFCVSLRWGAMDYWGQGTSVTVSS
VL: QIVLTQSPALMSASPGEKVTMTCSASSSVSYMYWYQQKPRSSPKPWIYLTSNLASGVPARFSGSGSGTSYSLTISSMEAEDAATYYCQQWNSNPYTFGGGTKLEIK
modifications: 4-35-B2 heavy chain variable region; 4-35-B2 light chain variable region

affinity of binding to human HER3 in the presence of NRG1 [1]: sub-picomolar affinity
affinity of binding to human HER3 in the absence of NRG1 [2]: sub-picomolar affinity
B2: 10D1F: clone with VH SEQ ID NO:36 and VL SEQ ID NO:83; b369 means 10D1F.A, b1087 the mIgG2a format (antibody, V domains shown)
VH: QVQLQESGPGLVKPSQTLSLTCTVSGYSITSGYSWHWIRQHPGKGLEWIGSIRYSGGTDYNPSLKSLVTISADTSKNQFSLKLSSVTAADTAVYYCARMTTAPWYPFDYWGQGTTVTVSS
VL: DIQMTQSPSSVSASVGDRVTITCKASQIVGSNVAWYQQKPGKAPEPLIYSASYLYSGVPSRFSGSGSGTDFTLTISSLQPEDFATYYCQQYSSHPLTFGQGTKLEIK
modifications: 10D1_c89 heavy chain variable region; 10D1_c89 light chain variable region
notes: b369 means 10D1F.A, b1087 the mIgG2a format

Reference: US11208498B2, “Treatment and prevention of cancer using HER3 antigen-binding molecules” (Hummingbird Bioscience Holdings Pte. Ltd., priority 2019, dated 2021)
